The text below walks through data of publication PMC2995167 (The Journal of Cell Biology, 2010).

The data set concerns the molecule itself. Put plainly: bead aggregation assay.

B1: NcadEC-Fc (Fc fusion)
chain: DWVIPPVNVLENSRKQFPEELVKIQSDKDKSNTLRYSVTGPGADQNPTGLFIIDPISGLLSVTKPLDREHIPNFHLRAHAVDINGNQMENPIDIIINVIDMNDNRPEFTHQIWNGTVDEGAKPGTFVMTVTSQDKDDPNTANGMLRYKILSQTPESPSSNMFTINNKTGKIITVAAGLDREKVPQYTLIIQATDMEGNPTYGLSNTATAVIRLLDVNDNAPEFTRETFHGEVPENRVNVIVTNLTVTDKDEPGTPAWNAVYRIISGDPTGRFSIPTDPVTNEGLVTVVKPVDFEMNRSFMLTVVADNEVPLASGIHRTRQSTATVSIRVIDVNESPNFDPNPKQIKLEEGLPQWSMLTTFTAHDPDRYMQQTISYSKLYDPANWLEIDPNNGRISTIAVLDRESPYVKNNLYNATFMASDNGVPRASGTGTLQIYLLDINDNAPRVFPQEAEVCERPEPNAINITAVDGDLNPNAGPYAFELPNRPSDIRRNWTLTRISGDHAQLSLKISYLESGIYELPISITDSGNLPMSNTTYLRIKVCQCDHHGDCVDMERIMAAGLGTGA
With B1, the binding result is “binds”.
